According to article PMC10220053, “Molecular basis for Eaf3-mediated assembly of Rpd3S and NuA4” (Cell Discovery, 2023):
Each block holds one binder with its values, some of them ahead of it.

B1: Rco1^PHD1–SID (aa 240–376) (domain or fragment, S. cerevisiae, UniProt Q04779 240-376, looked up)
chain: SNASEKIFRDKNNSTIDFENEDFCSACNQSGSFLCCDTCPKSFHFLCLDPPIDPNNLPKGDWHCNECKFKIFINNSMATLKKIESNFIKQNNNVKIFAKLLFNIDSHNPKQFQLPNYIKETFPAVKTGSRGQYSDEN
notes: also called Rco1^SID1–PHD

Columns and labels:
[1] = target: T1, C-terminal MRG domain of Eaf3 (Eaf3^MRG, aa 218–401) (S. cerevisiae, UniProt Q12432 218-401); assay: pull-down; GST pull-down / affinity pull-down of Eaf3^MRG (wild type and mutants) with Rco1^PHD1–SID (wild type, mutants, truncation); which partner carried GST is not told
T1 construct: Eaf3, S. cerevisiae, C-terminal MRG domain, aa 218–401
T1 sequence (looked up): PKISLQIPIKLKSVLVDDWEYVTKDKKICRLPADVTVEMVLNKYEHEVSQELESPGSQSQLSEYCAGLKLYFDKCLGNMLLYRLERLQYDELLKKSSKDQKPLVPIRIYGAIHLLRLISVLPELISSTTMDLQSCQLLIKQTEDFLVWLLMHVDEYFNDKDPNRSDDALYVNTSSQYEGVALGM

[2] = target: B1; assay: crystal structure; Eaf3^MRG–Rco1^PHD1–SID–H3K4me0^1–12 ternary complex, 1.60 Å; conditions: both partners purified
Rco1^PHD1 alone = target: T2, Rco1^PHD1 alone (S. cerevisiae, Zn2+-bound PHD finger. Limits for PHD1 alone are not given; taken from the SID-deleted truncation Rco1 240-313 in the text, which covers PHD1 (zinc finger 260-309)); assay: ITC; H3 1–12 peptides with the Eaf3^MRG–Rco1^PHD1–SID complex or with Rco1^PHD1 alone; conditions: both partners purified
T2 chain: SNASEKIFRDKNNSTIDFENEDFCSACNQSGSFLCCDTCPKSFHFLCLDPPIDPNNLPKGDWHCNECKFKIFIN

[3] = target: T1, C-terminal MRG domain of Eaf3 …; assay: ITC; SUMO–Eaf7^108–143 or SUMO alone with Eaf3^MRG or the Eaf3^MRG–Rco1^PHD1–SID complex; conditions: both partners purified

Binder: B1
- binding result [1]: binds

- binding result [2]: binds
- Kd (Rco1^PHD1 alone): 110 µM
B2: H3K4me0^1–12 peptide (peptide, UniProt P61830 2-13, looked up)
peptide: ARTKQTARKSTG
notes: Histone H3, residues 1–12, Lys4 unmodified; also called H3K4me0 peptide; unmodified H3K4

- Kd [3]: 1 µM
B3: SUMO–Eaf7^108–143 (domain or fragment, S. cerevisiae, UniProt P53911 108-143, looked up)
chain: EETLLELNNRIRVRKQDFTLPWEEYGELILENARKS
